Assay results: the nanobody polyreactivity screen of Harvey et al. (2022)

assay: yeast display, Sf9 membrane polyspecificity reagent, FACS + sequencing; frameworks hold sequencing errors
In short: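 Nanobodies from a synthetic yeast display library (Saccharomyces cerevisiae BJ5465), induced 36–48 hours with galactose, were stained 1 hour at 4 °C with 10% biotinylated, detergent-solubilized Sf9 membrane reagent, enriched on streptavidin microbeads, then FACS-sorted. Anti-HA (expression) and streptavidin (reagent binding) fluorescence set low and high (top ~1%) gates. Polyreactivity labels come from the gate of origin. Genes were colony-PCR amplified, MiSeq 2 × 250 sequenced and filtered by CDR length.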

Sequence | polyreactivity (PSR sort gate)
QVQLVESGGGLVQAGGSLRLSCAASGSTFVLYAMGWYRQAPGKERELVAVISWSGGSTYYADSVKGRFTISRDNAKNTVYLQMNSLKPEDTAVYYCAKRYRVSYYPYADPYGYWGQGTQVTVSS | low polyreactivity
QVQLVESGGGLVQAGGSLRLSCAASGSTFVLYANGWYRQAPGKERELVAASTRRGGDTYYADSVKGRFTISRDNATNTVYLQMNSLKPEDTAVDYCATDYTTYGRYYYWGQGTQVTVSS | low polyreactivity
QVQLVESGGGLVQAGGSLRLSCAASGSTFVNNAMGWYRQAPGKERELVAAISKTGGRTRYADSVKGRFTISRDNAKNTVYLQMNSLKPEDTAVYYCAARYYGGGYNYWGQGTQVTVSS | high polyreactivity
QVQLVESGGGLVQAGGSLRLSCAASGSTFVPNAMGWYRQAPGKERELVAAITVDGDDTYYADSVKGRFTISRDNAKNTVYLQMNSLKPEDTAVYYCAAEQDPWTSRYVFFASRYDYWGQGTQVTVSS | low polyreactivity
QVQLVESGGGLVQAGGSLRLSCAASGSTFVPNAMGWYRQAPGKERELVATINYADSVKGRFTISRDNAKNTVYLQMNSLKPEDTAVYYCATETAVYLVWGTALDYWGQGTQVTVSS | low polyreactivity
QVQLVESGGGLVQAGGSLRLSCAASGSTFVPNAMGWYRQAPGTERELVAAITVDGDDTYYADSVKGRFTISRDNAKNTVYFQMNSLKPEVTAVYYCKADPDVPFFSWLTGRGTYDYWGQGTQVTVSS | low polyreactivity
QVQLVESGGGLVQAGGSLRLSCAASGSTFVPNDMGGYRQAPGKERELVAAISYSGGSTYYADSVKGRFTISRDNAKNTVYLQMNSLKPEDTAVYYCAADKYLGELDYWGQGTQVTVSS | low polyreactivity
QVQLVESGGGLVQAGGSLRLSCAASGSTFVPNDMGWYRQAPGKERELVAAISYSGGSTYYADSVKGRFTISRDNAKNTVYLQMNSLKPEDTAVYYCAAEKYLGELDYWGQGTQVTVSS | low polyreactivity
QVQLVESGGGLVQAGGSLRLSCAASGSTFVPNTMGWYRQAPGKERELVADITYSGGSTYYADSVKGRFTISRDNAKNTVYLQMNSLKPEDTAVYYCAAEGTTWYYDMDYWGQGTQVTVSS | low polyreactivity
QVQLVESGGGLVQAGGSLRLSCAASGSTFVPYPMGWYRQAPGKERELVAAISSTGGSTYYADSVKGRFTISRDNAKNTVYLQMNSLKPEDNAVYYCNALAKIRYGQINKGYYRGQGTQVTVSS | high polyreactivity
QVQLVESGGGLVQAGGSLRLSCAASGSTFVQYTMGWYRQAPGKERELVAVITGGDGSTYYADSVKGRFTISRDNAKNTVYLLMNSLKPEDTAVYYCNADVYDYLRGGYEFDYWGQGTQVTVSS | low polyreactivity
QVQLVESGGGLVQAGGSLRLSCAASGSTFVRNAMGWYRQAPGKERELVAAISGSGSRTYYADSVKGRFTISRDNAKNTVYLQMNSLKPEDTAVYYCAARITAHEYDYWGQGTQVTVSS | high polyreactivity
QVQLVESGGGLVQAGGSLRLSCAASGSTFVRNAMGWYRQAPGKERELVAAISTRGGSTSYADSVKGRFTISRDNAKNTVYLQMNCLKPEDTAVYYCAKVHAYSQGIRHGYWGQGTQVTVSS | low polyreactivity
QVQLVESGGGLVQAGGSLRLSCAASGSTFVRNAMGWYRQAPGKERELVAGISTGDKTYYADSVKGRFTISRDNAKNTVYLQMNSLKPEDTAVYYCAASVGTYQTATLDYDSWGQGTQVTVSS | low polyreactivity
QVQLVESGGGLVQAGGSLRLSCAASGSTFVRNAMGWYRQAPGKERELVAGISTGDNTYYADSVKGRFTISRDNAKNTVYLQMNSLKPEDTAVDYCNATKDFSFGLDYWGQGTQVTVSS | low polyreactivity
QVQLVESGGGLVQAGGSLRLSCAASGSTFVRNAMGWYRQPPGKDRELVAAISWRGGSTYYADTVKGRFTISRDNAKNTVYLQMNSLKPEDTAVYYCNKVGTWQGPYDYWGQGTQVTVSS | high polyreactivity
QVQLVESGGGLVQAGGSLRLSCAASGSTFVRYAMGWYRQAPGKERELVAAIRGGGGTYYADSVKGRFTISRDNAKNTVYLQMNSLKPVDTAVYYCAADTYYYYWFAGYTEYDYWGQGTQVTVSS | low polyreactivity
QVQLVESGGGLVQAGGSLRLSCAASGSTFVSNAMGWDRQAPGKERELVAAISSSGGRTSYADSEKGRFTISRDNAKNTVYLQMTSPKPEDTAVYYCAARFKSVDYVQYYYWGQGTQVTVSS | low polyreactivity
QVQLVESGGGLVQAGGSLRLSCAASGSTFVSNAMGWYRQAPGKERELVAAISKGDGNTYYADSVKGRFTISRDNAKNTVYLQMNSLKPEDTAVYYCAATYHYYSRWYDYWGQGTQVTVSS | high polyreactivity
QVQLVESGGGLVQAGGSLRLSCAASGSTFVSYAMGWYRQAPGKESELVAGISWSGTRTYYADSVKGRFTISRDNAKNTVYLQMNSLKPEDTAVYYCAARDSSYNWYGYWGQGTQVTVSS | high polyreactivity
QVQLVESGGGLVQAGGSLRLSCAASGSTFVTNAMVWYRQAPGKERELVAAIDYDSGSTYYADSVKGRFTISRDNAKNTVYLQMNSLIPEDTAVYYCNADEQSEEEWEYYYSYDYWGQGTQVTVSS | high polyreactivity
QVQLVESGGGLVQAGGSLRLSCAASGSTFVTYAMGWYRQAPGKERELVAAISRSGGSTYYADSVKGRFTISRDNAKNTVYLQMNSLKPEDTAVYYCAAVIYPYYSYAHRYDYWGQGTQVTVSS | low polyreactivity

Sequence | polyreactivity (PSR sort gate)
QVQLVESGGGLVQAGGSLRLSCAASGSTFVTYVMGWYRQAPGKERELVADIRRSGGSTYYADSVKGRFTISRDNAKNTVYLQMNSLKPEDTAVYYCAAYQYYYVNEVRRYYYWGQGTQVTVSS | high polyreactivity
QVQLVESGGGLVQAGGSLRLSCAASGSTFVVNAMGWYRPAPGKERELVAAIDGSDGSTYYADSVKGRFTISRDNAKNTVYFQMNSLKPEDTAVYYCAAEVLGRPDVENDYWGQGTQVTVSS | low polyreactivity
QVQLVESGGGLVQAGGSLRLSCAASGSTFVVNDMGWYRQAPGKERELVAAIRSGTSTNYADSVKGRFTISRDNAKNTVYLQMNSLKPEDTAVYYCNAAITQFAWNRYTLIYDYWGQGTQVTVSS | low polyreactivity
QVQLVESGGGLVQAGGSLRLSCAASGSTFVVYAMGWYRQATGKERELVAAISANVGGTYYADSVKGRFTISRDNAKNTVYLQMNSLKPEVTAVYYCAADYAYNYFWRPGDYWGQGTQVTVSS | low polyreactivity
QVQLVESGGGLVQAGGSLRLSCAASGSTFVWNAMGWSRQAPGKERQLVAAIDSGGSTNYADSVKGRFTISRDNAKNTVYLQMNSLKPEDTAVYYCATDQGYRYLKIYVYGDAFDYWGQGTQVTVSS | low polyreactivity
QVQLVESGGGLVQAGGSLRLSCAASGSTFVWYAMGWYRQAPGKEREFVAAITNSGGSTYYADSVKGRFTISRDNAKNTVYLQMNSLKPEDTAVDYCAKDRYYYRGAYHEYNYWGQGTQVTVSS | low polyreactivity
QVQLVESGGGLVQAGGSLRLSCAASGSTFVYAMAWYSQAPGKERELVAAITTGDSTYYADSVKGRFTISRDNAKNTVYLQMNSLKPEDTAVYYCAAQWYTRYGEYGYWGQGTQVTVSS | low polyreactivity
QVQLVESGGGLVQAGGSLRLSCAASGSTFVYNALGWDRQAPGKERELVAAITRRGGTTYYADSVKGRFTMSRDNAKNTVYLQMNSLKQEDTAVYYCAARTRGTAYNYSGQGTQVTVSS | high polyreactivity
QVQLVESGGGLVQAGGSLRLSCAASGSTFVYNAMGWSRQAPGKERELVAVITYRGGRTYYADSVKGRFTISRDNAKNTVYLQINSLKPEDTAVYYCAKRVYGSKVRGYDYWGQGTQVTVSS | high polyreactivity
QVQLVESGGGLVQAGGSLRLSCAASGSTFVYNAMGWYRQAPGKERELVAAITSRGGSTDYADSVKGRFTISRDNAKNTVYLQMNSLKPEYTSVYYCAADYSHTGSRYYQEGDYWGQGTQVTVSS | low polyreactivity
QVQLVESGGGLVQAGGSLRLSCAASGSTFVYYALGWYRPSPGKERELVARITRSGGSTYYADSVKGRFTISRDNAKNTVYLQMNSLKPEDTAVYYCAAEQSVYFLVFTGVKFDYWGQGSQVTVSS | low polyreactivity
QVQLVESGGGLVQAGGSLRLSCAASGSTFVYYAMGWYRQAPGKERELVAAISRSGGNTYYADSVKGRFTISRDNAKNTVYLQMNSLKPEDTAVYYCAARSYGVQYYYWGQGTQVTVSS | high polyreactivity
QVQLVESGGGLVQAGGSLRLSCAASGSTFVYYAMGWYRQAPGKERELVAAISWSSDSTYYADSEKGRFTISRDNAKNTVYLQMNSLKPEDTAVYYCARSDGRQSYWTDFSTDYYFWGQGTQVTVSS | low polyreactivity
QVQLVESGGGLVQAGGSLRLSCAASGSTFVYYAMGWYRQAPGKERELVARITRGGGSTNYADSLKARFTISRDNAKNTVYLHMNSLKPEDTAVYYCAKRRKVTYDYWGQGTQVSVSS | high polyreactivity
QVQLVESGGGLVQAGGSLRLSCAASGSTFWDYAMGWYRPAPGKERELVAAISTSGGSTYYADSVKGRFTISRDNAKNTVYLQMNSLKPEDPAVYYFAAGRVRRRVWYNYWGQGTQVTVSS | high polyreactivity
QVQLVESGGGLVQAGGSLRLSCAASGSTFWFNAMGWYRQAPGKERELVAAIDSNTGSTSYADSVKGRFTISRDNAKNTVYLQMNSLIPEDTAVYYCNADYDFAKDRGDYWGQGTQVTVSS | low polyreactivity
QVQLVESGGGLVQAGGSLRLSCAASGSTFWFSAMGWYRQEPGKERELVAAITWSGGRTYYADSVKGRFTISRDNAKNTVYLQLNSLKPEDTAVYYCNKAYPQFGPLDDWGQGTQVTVSS | low polyreactivity
QVQLVESGGGLVQAGGSLRLSCAASGSTFWFYAMGWYRQAPGKERELVAAITRGGSTYYADSVKGRFSISRDNAKNTVYLQMNSLKPEDTAVYYCAAEVGWSRYKWLEYWGQGTQVTVSS | low polyreactivity
QVQLVESGGGLVQAGGSLRLSCAASGSTFWFYAMGWYRQAPGKERELVAVISNYGSTYYADSVKGRFTISRDNAKNTVYLQMNSLITEDTAVYSCNKDGGGDSYWYDYWGQGTQVTVSS | low polyreactivity
QVQLVESGGGLVQAGGSLRLSCAASGSTFWGYAMGWYRQAPGTERELVAAITRNGGGTYYADSVKGRFTISRDNAKNTVYLQMNSLKPEDTAVYYCAATRRAYYLYGGQKMDYWGQGTQVTVSS | high polyreactivity
QVQLVESGGGLVQAGGSLRLSCAASGSTFWGYTMGWYRQAPGKERELVAAITSGGSTNYADSVKGRFTISRDNAKNTVYLQMNSLKPEDTAVYYCNAVYPGRRRYRKWYIYDYWGQGTQVTVSS | high polyreactivity
